B1: acid-labile sub-unit (ALS) of insulin like growth factor binding protein complex (other, human, UniProt P35858 28-605, looked up)
chain: ADPGTPGEAEGPACPAACVCSYDDDADELSVFCSSRNLTRLPDGVPGGTQALWLDGNNLSSVPPAAFQNLSSLGFLNLQGGQLGSLEPQALLGLENLCHLHLERNQLRSLALGTFAHTPALASLGLSNNRLSRLEDGLFEGLGSLWDLNLGWNSLAVLPDAAFRGLGSLRELVLAGNRLAYLQPALFSGLAELRELDLSRNALRAIKANVFVQLPRLQKLYLDRNLIAAVAPGAFLGLKALRWLDLSHNRVAGLLEDTFPGLLGLRVLRLSHNAIASLRPRTFKDLHFLEELQLGHNRIRQLAERSFEGLGQLEVLTLDHNQLQEVKAGAFLGLTNVAVMNLSGNCLRNLPEQVFRGLGKLHSLHLEGSCLGRIRPHTFTGLSGLRRLFLKDNGLVGIEEQSLWGLAELLELDLTSNQLTHLPHRLFQGLGKLEYLLLSRNRLAELPADALGPLQRAFWLDVSHNRLEALPNSLLAPLGRLRYLSLRNNSLRTFTPQPPGLERLWLEGNPWDCGCPLKALRDFALQNPSAVPRFVQAICEGDDCQPPAYTYNNITCASPPEVVGLDLRDLSEAHFAPC
modifications: glycoprotein (N-linked carbohydrate); 125I-iodinated (chloramine-T) where used as tracer
notes: mature; 84/86 kDa doublet on SDS-PAGE; In some experiments partially pure ALS or serum fractions (peak B) were used; also called ALS tracer

What was measured:
[1] = biological target: B1; assay: competition with cross-linked BP-53-IGF-I tracer in the routine ALS assay
Protocol: (§1) Samples to be tested for ALS activity were diluted to 200 μL in buffer containing 50 mmol/L sodium phosphate, 0.15 mol/L NaCl, and 0.2 g/L sodium azide, pH 6.5, with 10 g/L bovine albumin. Cross-linked BP-53-IGF-I tracer (~80,000 cpm; 4 ng) was added in 50 μL of the same buffer. After 25–30 min. of incubation at 22° C., 200 μL of the mixture was applied using a V-7 injector valve (Pharmacia) to a Superose-12 gel permeation column eluting at 1.0 mL/min (~2 megapascal pressure) in assay buffer without albumin. The column was calibrated with rabbit immunoglobulin G (Pentex; ~150K), which eluted mainly in fractions 22~24, peaking in fraction 23; BP-53-IGF-I tracer (~60K), which eluted mainly in fractions 25–27, peaking in fraction 26; IGF-I tracer bound to BP-28 (~35K, peaking in fraction 28); and IGF-I tracer (7.5K, peaking in fraction 33). Plotted as log (molecular mass) vs. elution volume, these four markers yielded a linear calibration curve (not shown). As a quantitative index of ALS activity (i.e. the degree of conversion of BP-53 to the 150K complex), the total radioactivity in fractions 22–24 was divided by that in fractions 25–27 to give a 150K/60K ratio. The values of this ratio typically varied between 0.1 and 2.0. The coefficient of variation of the 150K/60K ratio, based on analysis of variance of eight duplicate measurements covering a wide range of values, was 3.2%. […]

[2] = biological target: T1, Cross-linked BP-53-IGF-I tracer (covalent complex of BP-53 with [125I]IGF-I) (human, UniProt P17936 28-291; P05019 49-118, 125I-iodinated; cross-linked to BP-53 with disuccinimidyl suberate; glycoprotein; cross-linked to IGF-I with disuccinimidyl suberate); assay: routine ALS assay, Superose-12, no serum added
T1 construct: mature; About 60K; Used as tracer in the routine ALS assay; also called covalent BP-53-IGF-I complex; cross-linked tracer
T1 sequence (P17936 28-291, chain 1 of 2): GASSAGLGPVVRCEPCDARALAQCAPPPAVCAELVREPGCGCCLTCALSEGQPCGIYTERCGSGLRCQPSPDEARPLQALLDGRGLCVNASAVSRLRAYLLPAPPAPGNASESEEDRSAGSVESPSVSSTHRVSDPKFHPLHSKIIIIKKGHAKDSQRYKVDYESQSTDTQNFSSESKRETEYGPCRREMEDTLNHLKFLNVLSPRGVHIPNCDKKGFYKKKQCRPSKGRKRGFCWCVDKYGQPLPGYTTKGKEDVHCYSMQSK
T1 sequence (P05019 49-118, chain 2 of 2): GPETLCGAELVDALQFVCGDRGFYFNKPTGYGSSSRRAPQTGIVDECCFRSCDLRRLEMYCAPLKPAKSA
Protocol: The routine assay for ALS activity was developed, based on the conversion of a covalent BP-53-IGF-I complex of approximately 60K to 150K form in the presence of ALS.
as §1, with “2.0.” for “2.0. The coefficient of variation of the 150K/60K ratio, based on analysis of variance of eight duplicate measurements covering a wide range of values, was 3.2%.”

binding result [1]	150K/60K ratio [2]	Binder
no binding (tested: 0.8 µg/mL)		28K IGF-binding protein BP-28 (other, human, UniProt P08833 26-259, looked up, mature; also called purified amniotic fluid BP-28) APWQCAPCSAEKLALCPPVSASCSEVTRSAGCGCCPMCALPLGAACGVATARCARGLSCRALPGEQQPLHALTRGQGACVQESDASAPHAAEAGSPESPESTEITEEELLDNFHLMAPSEEDHSILWDAISTYDGSKALHVTNIKKWKEPCRIELYRVVESLAKAQETSGEEISKFYLPNCNKNGFYHSRQCETSMDGEAGLCWCVYPWNGKRIPGSPEIRGDPNCQIYFNVQN
	~1	B1

Source: patent publication US6465423 (CENTRAL SYDNEY AREA HEALTH SERVICE, dated 2002)
